Source: US20240417446A1 (US Dept. of Health and Human Services, published 2024)

How the values were obtained:
[1] = biological target: SARS-CoV-2 Gamma variant spike protein on pseudovirus (SARS-CoV-2, UniProt P0DTC2 14-1273); assay: cell-based or functional assay
[2] = biological target: SARS-CoV-2 Alpha variant spike protein on pseudovirus (SARS-CoV-2, UniProt P0DTC2 14-1273); assay: cell-based or functional assay
[3] = biological target: SARS-CoV-2 Omicron BA.2 variant spike protein on pseudovirus (SARS-CoV-2); assay: cell-based or functional assay
[4] = biological target: SARS-CoV-2 Lambda variant spike protein on pseudovirus (SARS-CoV-2, UniProt P0DTC2 14-1273); assay: cell-based or functional assay
[5] = biological target: SARS-CoV-2 Omicron BA.1 variant spike protein on pseudovirus (SARS-CoV-2); assay: cell-based or functional assay
[6] = biological target: SARS-CoV-2 Omicron BA.4/BA.5 variant spike protein on pseudovirus (SARS-CoV-2); assay: cell-based or functional assay
[7] = biological target: T1, SARS-CoV-2 spike trimer (40589-V08H4) (SARS-CoV-2, UniProt P0DTC2 14-1213); assay: ELISA, A450, nanobody at 10ug/mL, Spike Trimer coated at 2 ug/mL
T1 construct: extracellular domain

| Binder | ELISA (A450) at 10ug/mL [7] | also measured |
| --- | --- | --- |
| NCI-CoV-S2A9 (VNAR) VNAR: ARVDQTPRSVTKETGESLTINCVLRDASYALGRTCWYRKKSGSTNEESISKGGRYVETVNSGSKSFSLRINDLTVEDGGTYRCGVSTPWSCDYGPLCFYAACGDGTVVTVN | 0.53 | IC50 for neutralizing pseudovirus [1]: 1800 nM; IC50 for neutralizing pseudovirus [2]: 1820 nM; IC50 for neutralizing pseudovirus [3]: 2250 nM; IC50 for neutralizing pseudovirus [4]: 4570 nM; IC50 for neutralizing pseudovirus [5]: 2250 nM; IC50 for neutralizing pseudovirus [6]: 3730 nM |
| NCI-CoV-S2G8 (VNAR) VNAR: ARVDQTPQTITKETGESLTINCVLRDSNCPLSNTYWYRKKSGSTNEESISKGGRYVETVNSGSKSFSLRINDLTVEDSGTYRCKVRTHWSICWEMGLEPNYDVYGGGTVVTVN | 0.61 | – |
| NCI-CoV-S3A10 (VNAR) VNAR: ARVDQTPRSVTKETGESLTINCVLRDASYALGSTCWYRKKSGSTNEESISKGGRYVETVNSGSKSFSLRINDLTVEDGGTYRCGRIQNTKAVLLPCVYAACGDGTVVTVN | 1.34 | – |
| NCI-CoV-S4A9 (VNAR) VNAR: ARVDQTPRSVTKETGESLTINCVLRDASYALGSTCWYRKKSGSTNEESISKGGRYVETVNSGSKSFSLRINDLTVEDGGTYRCGVQSRWGAVPKLCSNYAACGDGTAVTVN | 1.43 | – |
| NCI-CoV-CG2G2 (VHH) VHH: AVQLVESGGGSVPPGGSLTLSCTVSDNIFRTYAVGWFRQAPEKRCQWIATLNADESTEYNVAVTGRFTISRDNSGRSVYLQMDNLNSEDTAIYYCASLARKWSCHDSWGRGTQVTVSS | 2.7 | – |
| NCI-CoV-CLA2 (VHH) VHH: QVQLVESGGGSVQPGGSLRLSCAVSGYTSSSYCFGWFRQAPGKDREGIIAMEPGNTYTAGAVKGRFTISRDNAKNMVYLQMNSLKPDDTAMYYCAASPYPGTWLNPDLFDTWGQGTQVTVSS | 0.66 | – |
| NCI-CoV-CL3H4 (VHH) VHH: DVQLVESGGGAVKPGGSLTLTCTVQEGSRNCVGWFRQGSGKDRQAVAMINGNGGTTNYDDRVKGRFQISRDGSLVHLRMNDVKLGDTDIYYCRQGQTYDCWGGTWTDSGWGQGTQVTVSS | 0.3 | – |
| NCI-CoV-CGF10 (VHH) VHH: AVQLVESGGGLVQPGGSLRLSCAASGFTFSSYGMHWVRQAPGKGLERVAGINWDGSNSYYTETVKGRFTISRDNAKNTAYLQMNSLKPEDTAMYYCRTLILDSDCDPGSTYRYAWGQGTQVTVSS | 1.2 | – |
| NCI-CoV-CGH3 (VHH) VHH: AVQLVESGGGLVQPGGSLRLSCAASGFTFSSYAMGWVRQAPGKGLEWISAINSGGDIRYYADSVKGRFTISRDNAKNTLYLQMNSLKPEDTAVYYCATDDEILSYGLGTSFDYWGQGTQVTVSS | 0.14 | – |
